Experimental data reported in PMC4979064, “Crystal structure of the plant receptor-like kinase TDR in complex with the TDIF peptide” (Nature Communications, 2016).
Square brackets hold non-standard residues; d marks the D form. Ends that are not written are not given here. Hyp = O=C(O)[C@@H]1C[C@@H](O)CN1; Ahx = NCCCCCC(=O)O

Experiments:
Conditions in all cases: both partners purified
[1] = target: T1, lysine methylated C259A/C540S TDR mutant, extracellular domain (residues 31–631) (Arabidopsis thaliana, UniProt Q9FII5 31-631, C259A | C540S, lysine residues methylated; digested with Endo H (deglycosylated)); assay: crystal structure; TDR and TDIF mixed at a molar ratio of 1:1.5, vapour diffusion at 20 °C, 4 M sodium nitrate, 0.1 M sodium acetate pH 4.8, 200 mM ammonium sulfate; 3.0 Å, molecular replacement
T1 construct: TDR/PXY, Arabidopsis thaliana, extracellular LRR domain, residues 31-631, with C259A/C540S; also called lysine methylated C259A/C540S mutant; methylated TDR protein; not shown: 10xHis (after an HRV3C protease site), C-terminal, cleaved
T1 sequence (looked up): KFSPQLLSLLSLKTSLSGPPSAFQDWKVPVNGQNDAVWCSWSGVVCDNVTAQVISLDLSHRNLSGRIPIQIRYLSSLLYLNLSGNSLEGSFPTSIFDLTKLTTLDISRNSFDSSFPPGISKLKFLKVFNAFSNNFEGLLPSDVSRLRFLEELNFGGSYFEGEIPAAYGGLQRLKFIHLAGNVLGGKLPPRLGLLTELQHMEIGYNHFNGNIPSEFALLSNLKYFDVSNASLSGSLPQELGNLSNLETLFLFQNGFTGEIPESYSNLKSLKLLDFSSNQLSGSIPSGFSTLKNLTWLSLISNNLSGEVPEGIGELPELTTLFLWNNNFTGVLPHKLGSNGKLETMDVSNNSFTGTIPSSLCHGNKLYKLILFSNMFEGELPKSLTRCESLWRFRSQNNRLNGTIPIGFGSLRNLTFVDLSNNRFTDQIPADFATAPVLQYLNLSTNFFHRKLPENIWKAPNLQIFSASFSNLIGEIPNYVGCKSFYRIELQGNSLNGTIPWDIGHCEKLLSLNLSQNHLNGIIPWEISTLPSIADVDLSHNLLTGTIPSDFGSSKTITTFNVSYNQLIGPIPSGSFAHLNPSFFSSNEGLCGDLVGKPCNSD

[2] = target: T2, extracellular domain (residues 31–631) of TDR from A. thaliana, wild type (Arabidopsis thaliana, UniProt Q9FII5 31-631); assay: pull-down; biotinylated TDIF (2 ug) held on Dynabeads M-280 Streptavidin; purified TDR protein added with 0.1 mg/ml BSA, 4 °C, 2 h; wash buffer 20 mM Tris-HCl pH 7.5, 150 mM NaCl; bound protein eluted in SDS sample buffer, SDS-PAGE
T2 construct: TDR/PXY (TDIF receptor/phloem intercalated with xylem), LRR receptor-like kinase, Arabidopsis thaliana, extracellular LRR domain, residues 31-631; The purification told in the methods cleaves the His tag with HRV3C protease; also called wild-type TDR; TDIF receptor; source: Sf9 insect cells (baculovirus), secreted into the culture supernatant, purified
T2 sequence (looked up): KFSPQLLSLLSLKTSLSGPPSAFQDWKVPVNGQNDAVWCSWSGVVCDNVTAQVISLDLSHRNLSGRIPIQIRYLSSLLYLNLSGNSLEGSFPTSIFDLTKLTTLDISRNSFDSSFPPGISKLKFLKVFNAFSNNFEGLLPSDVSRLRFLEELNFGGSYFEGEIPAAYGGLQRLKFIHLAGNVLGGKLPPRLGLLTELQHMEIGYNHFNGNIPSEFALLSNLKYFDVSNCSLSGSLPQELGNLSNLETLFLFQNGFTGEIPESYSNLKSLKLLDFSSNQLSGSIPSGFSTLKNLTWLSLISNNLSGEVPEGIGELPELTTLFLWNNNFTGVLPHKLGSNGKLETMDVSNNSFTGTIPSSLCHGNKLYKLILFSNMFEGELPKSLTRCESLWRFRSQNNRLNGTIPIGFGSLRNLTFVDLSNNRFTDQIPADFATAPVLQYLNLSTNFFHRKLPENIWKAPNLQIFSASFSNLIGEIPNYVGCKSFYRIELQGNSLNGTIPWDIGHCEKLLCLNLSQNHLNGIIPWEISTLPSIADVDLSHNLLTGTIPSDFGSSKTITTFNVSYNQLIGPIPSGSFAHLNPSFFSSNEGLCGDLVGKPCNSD

[3] = target: T1, lysine methylated C259A/C540S TDR …; assay: as above
[4] = target: T3, C259A/C540S TDR mutant, extracellular domain (residues 31–631), as in the pull-down of Fig. 2e (Arabidopsis thaliana, UniProt Q9FII5 31-631, C259A | C540S); assay: as above
T3 construct: TDR/PXY, Arabidopsis thaliana, extracellular LRR domain, residues 31-631, with C259A/C540S; it may be the same preparation as m2; also called C259A/C540S mutant; TDR C259A/C540S mutant; source: Sf9 insect cells (baculovirus), purified
T3 sequence (looked up): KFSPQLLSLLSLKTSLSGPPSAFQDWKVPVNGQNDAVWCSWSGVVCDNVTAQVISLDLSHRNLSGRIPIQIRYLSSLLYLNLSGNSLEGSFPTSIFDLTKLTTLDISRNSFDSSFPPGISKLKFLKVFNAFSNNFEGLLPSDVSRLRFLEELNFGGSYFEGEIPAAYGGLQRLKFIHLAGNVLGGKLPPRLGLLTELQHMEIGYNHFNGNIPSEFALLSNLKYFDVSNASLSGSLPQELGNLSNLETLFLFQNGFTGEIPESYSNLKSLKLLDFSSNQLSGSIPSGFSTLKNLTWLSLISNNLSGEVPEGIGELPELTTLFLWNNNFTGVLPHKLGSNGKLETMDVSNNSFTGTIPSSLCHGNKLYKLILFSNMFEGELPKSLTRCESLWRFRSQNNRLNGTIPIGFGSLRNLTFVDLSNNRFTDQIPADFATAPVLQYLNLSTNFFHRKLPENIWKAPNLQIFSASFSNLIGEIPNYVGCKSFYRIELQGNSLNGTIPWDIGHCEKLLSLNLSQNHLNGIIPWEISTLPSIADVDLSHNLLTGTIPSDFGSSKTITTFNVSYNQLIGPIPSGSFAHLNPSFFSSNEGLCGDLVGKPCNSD

[5] = target: T4, TDR F161A mutant (in the C259A/C540S extracellular domain, residues 31–631) (Arabidopsis thaliana, UniProt Q9FII5 31-631, C259A | C540S | F161A); assay: as above
T4 construct: TDR/PXY, Arabidopsis thaliana, extracellular LRR domain, residues 31-631, C259A/C540S background with F161A; source: Sf9 insect cells (baculovirus), purified (Ni Sepharose excel)
T4 sequence (looked up): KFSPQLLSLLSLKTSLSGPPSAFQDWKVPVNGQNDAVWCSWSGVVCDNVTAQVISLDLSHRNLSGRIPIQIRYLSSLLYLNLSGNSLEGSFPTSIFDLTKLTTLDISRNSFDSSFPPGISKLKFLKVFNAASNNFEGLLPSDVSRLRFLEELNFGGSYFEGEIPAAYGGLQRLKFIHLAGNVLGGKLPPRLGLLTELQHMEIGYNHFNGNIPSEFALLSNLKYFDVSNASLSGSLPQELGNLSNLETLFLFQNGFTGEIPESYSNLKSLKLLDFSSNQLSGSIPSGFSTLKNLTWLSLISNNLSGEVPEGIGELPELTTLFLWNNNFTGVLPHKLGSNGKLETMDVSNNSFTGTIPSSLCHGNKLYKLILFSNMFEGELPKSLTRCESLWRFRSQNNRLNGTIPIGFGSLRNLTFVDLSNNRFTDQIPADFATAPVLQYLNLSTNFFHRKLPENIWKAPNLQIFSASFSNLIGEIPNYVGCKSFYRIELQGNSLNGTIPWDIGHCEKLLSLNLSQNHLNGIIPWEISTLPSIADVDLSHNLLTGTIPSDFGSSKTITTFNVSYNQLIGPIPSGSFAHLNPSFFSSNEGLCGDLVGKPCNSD

[6] = target: T5, TDR S162A mutant (in the C259A/C540S extracellular domain, residues 31–631) (Arabidopsis thaliana, UniProt Q9FII5 31-631, C259A | C540S | S162A); assay: as above
T5 construct: TDR/PXY, Arabidopsis thaliana, extracellular LRR domain, residues 31-631, C259A/C540S background with S162A; source: Sf9 insect cells (baculovirus), purified (Ni Sepharose excel)
T5 sequence (looked up): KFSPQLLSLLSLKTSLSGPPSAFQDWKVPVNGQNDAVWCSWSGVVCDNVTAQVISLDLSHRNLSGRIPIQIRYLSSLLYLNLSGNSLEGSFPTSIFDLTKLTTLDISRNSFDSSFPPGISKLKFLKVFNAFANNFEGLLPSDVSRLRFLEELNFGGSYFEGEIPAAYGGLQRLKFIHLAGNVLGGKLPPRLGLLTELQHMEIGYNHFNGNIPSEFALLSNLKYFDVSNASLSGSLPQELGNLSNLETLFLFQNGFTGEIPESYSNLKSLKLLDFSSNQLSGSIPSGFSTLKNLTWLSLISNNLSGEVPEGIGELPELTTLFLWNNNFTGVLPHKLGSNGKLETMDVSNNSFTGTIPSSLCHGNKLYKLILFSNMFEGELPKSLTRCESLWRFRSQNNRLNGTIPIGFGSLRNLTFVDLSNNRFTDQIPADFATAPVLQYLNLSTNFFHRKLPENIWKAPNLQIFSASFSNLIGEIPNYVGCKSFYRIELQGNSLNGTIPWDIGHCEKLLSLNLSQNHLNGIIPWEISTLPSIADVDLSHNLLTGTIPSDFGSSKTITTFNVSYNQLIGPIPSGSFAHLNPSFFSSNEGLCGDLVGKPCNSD

[7] = target: T6, TDR R421A mutant (in the C259A/C540S extracellular domain, residues 31–631) (Arabidopsis thaliana, UniProt Q9FII5 31-631, C259A | C540S | R421A); assay: as above
T6 construct: TDR/PXY, Arabidopsis thaliana, extracellular LRR domain, residues 31-631, C259A/C540S background with R421A; source: Sf9 insect cells (baculovirus), purified (Ni Sepharose excel)
T6 sequence (looked up): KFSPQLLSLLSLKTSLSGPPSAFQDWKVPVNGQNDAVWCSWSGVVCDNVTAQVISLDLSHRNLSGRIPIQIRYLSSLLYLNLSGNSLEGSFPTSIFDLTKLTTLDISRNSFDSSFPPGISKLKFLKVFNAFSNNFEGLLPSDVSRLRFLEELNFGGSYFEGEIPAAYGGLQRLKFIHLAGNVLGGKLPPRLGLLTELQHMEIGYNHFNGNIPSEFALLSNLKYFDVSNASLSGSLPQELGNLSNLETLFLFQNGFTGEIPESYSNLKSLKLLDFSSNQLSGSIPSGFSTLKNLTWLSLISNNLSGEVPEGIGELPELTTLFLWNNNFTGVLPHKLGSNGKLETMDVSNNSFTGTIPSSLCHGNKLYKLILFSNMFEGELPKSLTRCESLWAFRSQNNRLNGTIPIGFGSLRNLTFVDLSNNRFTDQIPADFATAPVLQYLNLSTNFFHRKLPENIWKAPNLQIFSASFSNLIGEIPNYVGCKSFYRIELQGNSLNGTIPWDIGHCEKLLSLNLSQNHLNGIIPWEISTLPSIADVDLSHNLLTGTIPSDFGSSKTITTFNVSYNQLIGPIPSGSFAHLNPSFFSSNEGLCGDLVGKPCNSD

[8] = target: T7, TDR R423A mutant (in the C259A/C540S extracellular domain, residues 31–631) (Arabidopsis thaliana, UniProt Q9FII5 31-631, C259A | C540S | R423A); assay: as above
T7 construct: TDR/PXY, Arabidopsis thaliana, extracellular LRR domain, residues 31-631, C259A/C540S background with R423A; source: Sf9 insect cells (baculovirus), purified (Ni Sepharose excel)
T7 sequence (looked up): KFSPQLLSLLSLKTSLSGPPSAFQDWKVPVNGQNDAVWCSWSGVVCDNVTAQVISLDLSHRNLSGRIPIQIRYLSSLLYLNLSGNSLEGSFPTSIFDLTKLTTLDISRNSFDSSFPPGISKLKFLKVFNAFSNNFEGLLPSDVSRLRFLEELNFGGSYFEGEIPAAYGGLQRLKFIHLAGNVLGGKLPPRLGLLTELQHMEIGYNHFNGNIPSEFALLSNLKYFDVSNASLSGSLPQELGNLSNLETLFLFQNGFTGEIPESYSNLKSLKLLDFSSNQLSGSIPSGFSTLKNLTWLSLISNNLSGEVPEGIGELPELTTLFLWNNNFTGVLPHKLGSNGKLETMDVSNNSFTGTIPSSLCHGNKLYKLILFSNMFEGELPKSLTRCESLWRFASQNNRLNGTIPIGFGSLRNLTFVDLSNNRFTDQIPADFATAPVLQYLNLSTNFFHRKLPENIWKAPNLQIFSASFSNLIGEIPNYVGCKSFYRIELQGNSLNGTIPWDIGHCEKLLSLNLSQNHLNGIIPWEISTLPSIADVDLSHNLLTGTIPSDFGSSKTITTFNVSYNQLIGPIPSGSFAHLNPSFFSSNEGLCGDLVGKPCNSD

Measured: binding result

B1: Tracheary element differentiation factor (TDIF) peptide, HEV(Hyp)SG(Hyp)NPISN (peptide)
peptide: HEV[Hyp]SG[Hyp]NPISN
notes: TDIF, 12-residue CLE family peptide with two hydroxyprolines (written P at 4 and 7), encoded by the CLE41 and CLE44 genes in Arabidopsis; the processed peptide from the C-terminus of the precursor; The same peptide is also encoded by CLE44; also called synthesized TDIF peptide; source: synthetic peptide (Eurofins Genomics)
binds: [1]

B2: biotinylated TDIF peptide, HEV(Hyp)SG(Hyp)NPISN-GSGS-(Ahx)-Biotin (peptide)
peptide: HEV[Hyp]SG[Hyp]NPISNGSGS-{Ahx-biotin}
notes: TDIF, 12-residue CLE family peptide with two hydroxyprolines (written P at 4 and 7), encoded by the CLE41 and CLE44 genes in Arabidopsis; linker before (Ahx)-Biotin; also called biotinylated TDIF peptides; source: synthetic peptide (Eurofins Genomics); not shown: Biotin, C-terminal, kept
not listed: [1]
binds: all other assays above
